{
  "source": "patent US20210338809A1",
  "about": "“Immune Tolerance-Inducing Agent and Therapeutic or Prophylactic Agent for Allergic Disorder” (Tokushima University, priority 2018, published 2021)",
  "molecules": {"B1": {"name": "ovalbumin (protein, UniProt P01012 2-386, looked up)", "Ovalbumin": "GSIGAASMEFCFDVFKELKVHHANENIFYCPIAIMSALAMVYLGAKDSTRTQINKVVRFDKLPGFGDSIEAQCGTSVNVHSSLRDILNQITKPNDVYSFSLASRLYAEERYPILPEYLQCVKELYRGGLEPINFQTAADQARELINSWVESQTNGIIRNVLQPSSVDSQTAMVLVNAIVFKGLWEKAFKDEDTQAMPFRVTEQESKPVQMMYQIGLFRVASMASEKMKILELPFASGTMSMLVLLPDEVSGLEQLESIINFEKLTEWTSSNVMEERKIKVYLPRMKMEEKYNLTSVLMAMGITDVFSSSANLSGISSAESLKISQAVHAAHAEINEAGREVVGSAEAGVDAASVSEEFRADHPFLFCIKHIATNAVLFFGRCVSP", "notes": "ovalbumin, egg allergen"}, "B2": {"name": "50% ethanol+OVA: 50% ethanol alone pre-administered, followed by oral OVA challenge (protein, UniProt P01012 2-386, looked up)", "Ovalbumin": "B1 Ovalbumin", "modifications": "after 50% ethanol pretreatment"}, "B3": {"name": "ovomucoid (protein, UniProt P01005 25-210, looked up)", "Ovomucoid": "AEVDCSRFPNATDKEGKDVLVCNKDLRPICGTDGVTYTNDCLLCAYSIEFGTNISKEHDGECKETVPMNCSSYANTTSEDGKVMVLCNRAFNPVCGTDGVTYDNECLLCAHKVEQGASVDKRHDGGCRKELAAVSVDCSEYPKPDCTAEDRPLCGSDNKTYGNKCNFCNAVVESNGTLTLSHFGKC"}},
  "key": {"[1]": {"test_system": "OVA transdermally sensitized model mice", "assay": "Anaphylaxis-eliciting test using aspirin pre-administration and oral OVA challenge, rectal temperature monitoring", "assay_type": "in vivo, mouse", "conditions": "for change in rectal temperature: from 30 minutes after challenge", "procedure": "Balb/c mice (6-7 weeks old, female) were subjected to hair removal on the back of the head with hair clippers, then, 100 μL of aqueous SDS solution (4%) was uniformly applied to damage their skin barrier function, and after 10 minutes, 100 μL of an aqueous solution of ovomucoid (OVM) (manufactured by NACALAI TESQUE, INC.) (10 mg/mL), 100 μL of an aqueous solution of ovalbumin (OVA) (manufactured by Sigma-Aldrich) (10 mg/mL), or 100 μL of an aqueous solution of casein (manufactured by Sigma-Aldrich) (10 mg/mL) was uniformly applied. Such allergen applications were carried out a total of 10 times (for 2 weeks with a frequency of 5 times/week) to generate a transdermally sensitized food allergic mouse model against OVM, OVA, or casein. The mice 10-14 days after transdermal sensitization were subjected to the following experiments.\nIn accordance with the schedule shown in FIG. 1, the present inventors performed two types of loadings of “ASA pre-administration” and “allergen oral administration” in combination on the allergen transdermally sensitized mouse model of the present invention to examine whether anaphylaxis could be reliably elicited. Experimental procedures and results are shown in the following (1) to (4).\nThe OVA transdermally sensitized model mice (body weight of about 20 g) of the present invention were fasted for 2 hours or more and then oral administration of ASA (manufactured by Sigma-Aldrich) dissolved in 50% ethanol (1.25 mg/100 μL/mouse) was performed. Also, as a control, a group was provided to which oral pre-administration of 50% ethanol alone without ASA was performed.\nThirty minutes after the pre-administration of ASA or ethanol, an aqueous OVA solution (manufactured by Sigma-Aldrich) was orally challenged (20 mg/100 μL/mouse). In addition, as a control, a group was provided to which only water (without OVA) was orally administered.\nIn this experiment, rectal temperatures were measured at 10-minute intervals starting from 10 minutes before OVA administration and for 90 to 120 minutes after administration. Then, the temperature change after OVA administration was monitored using the temperature 10 minutes before OVA administration as a reference value. It was determined that the mouse developed anaphylaxis when the rectal temperature decreased by 1° C. or more relative to the reference value."}, "[2]": {"test_system": "casein transdermally sensitized mice", "assay": "Anaphylaxis-eliciting test by intraperitoneal challenge with casein after prophylactic immunization and casein transdermal sensitization", "assay_type": "in vivo, mouse", "conditions": "subcutaneous injection 1 μg casein twice before sensitization"}, "[3]": {"test_system": "transdermally sensitized OVM allergic mouse model", "assay": "Anaphylaxis-eliciting test with trace amount of OVM alone", "assay_type": "in vivo", "procedure": "Specifically, the transdermally sensitized OVM allergic mouse model (body weight of about 20 g, n=10) was subjected to fasting and ASA administration before the challenge test in accordance with the procedures of Example 2. Then an oral OVM challenge test was performed. The oral OVM challenge test was performed by orally challenging with 0.01 μg of OVM once and examining change in rectal temperature for 60 minutes."}},
  "data": [
    {"molecule": "CC(=O)Oc1ccccc1C(=O)O", "note": "[ASA/50% ethanol, acetylsalicylic acid, reference compound]", "values": [
      {"measurement": "change in rectal temperature", "setting": "[1]", "value": "tendency of increase"}
    ]},
    {"molecule": "casein", "values": [
      {"measurement": "rectal temperature decrease in the other four cases", "setting": "[2]", "value": "worsening tendency"},
      {"measurement": "improvement of rectal temperature decrease after intraperitoneal challenge test", "setting": "[2]; n=5", "value": "only one case"}
    ]},
    {"molecule": "B1", "values": [
      {"measurement": "decrease in rectal temperature", "setting": "[1]; 10 minutes after oral OVA challenge", "value": "around 1.1 °C"},
      {"measurement": "elicitation of anaphylaxis", "setting": "[1]; oral OVA challenge 20 mg/mouse", "value": "extremely mild"}
    ]},
    {"molecule": "B2", "values": [
      {"measurement": "change in rectal temperature", "setting": "[1]", "value": "increase"}
    ]},
    {"molecule": "B3", "values": [
      {"measurement": "induction of anaphylaxis", "setting": "[3]; 0.01 μg OVM alone orally", "value": "does not induce anaphylaxis"},
      {"measurement": "rectal temperature after administration", "setting": "[3]; 0.01 μg OVM alone orally once, 60 minutes, n=10, ASA pre-administered", "value": "did not decrease"}
    ]}
  ]
}
